In assay [1] the target is T1, EcAII (type II L-asparaginase from E. coli) (Escherichia coli, UniProt P00805).
T1 construct: gene ansB; periplasmic enzyme, homotetramer; preparation not described here
T1 sequence (P00805 23-348): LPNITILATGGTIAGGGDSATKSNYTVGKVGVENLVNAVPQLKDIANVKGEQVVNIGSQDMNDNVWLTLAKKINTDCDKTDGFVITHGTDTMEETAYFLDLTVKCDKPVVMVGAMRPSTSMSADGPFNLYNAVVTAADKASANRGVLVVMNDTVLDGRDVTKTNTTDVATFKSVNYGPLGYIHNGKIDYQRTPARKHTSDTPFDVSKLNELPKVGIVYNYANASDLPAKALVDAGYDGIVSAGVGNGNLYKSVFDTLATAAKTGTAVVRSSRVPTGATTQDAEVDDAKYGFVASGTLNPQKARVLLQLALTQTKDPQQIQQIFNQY
In words: Q-TOF LC/MS of substrate, product and hydroxamate (data not shown). Format: biochemical. Particulars: 25 mM HEPES pH 7.7; 8 mM substrate, 27.8 nM enzyme, 0.4 M NH2OH.

Assay [2] has as its target L-glutaminase-asparaginase from Pseudomonas 7A, K173M variant (Pseudomonas 7A) (UniProt Q88K39). Nature of the assay: crystal structure; co-crystallised with small ligands, hanging drop; protein 12.5-13.5 mg/ml in 50 mM HEPES pH 7.0, 200 mM NaCl; four protomers in the asymmetric unit as two intimate dimers (A,B) and (C,D).
Assay [3] deals with L-glutaminase-asparaginase from Pseudomonas 7A, wild type (Pseudomonas 7A) (UniProt Q88K39). The assay is described as above.

For `NC(=O)C[C@H](N)C(=O)O` [L-Asn], in assay [1], the “Q-TOF LC/MS of substrate, product and hydroxamate (data not shown)” value was “EcAII(wt) with L-Asn were monitored (not shown)”. In turn, “L-glutaminase-asparaginase from Pseudomonas 7A, K173M variant (from UniProt Q88K39 26-362) (enzyme)” returned a stoichiometry N in assay [2] of 4.

On to “L-glutaminase-asparaginase from Pseudomonas 7A, wild type (from UniProt Q88K39 26-362) (enzyme)”, for which the stoichiometry N in assay [3] stood at 4.

The values are drawn from PMC7567106, “Generalized enzymatic mechanism of catalysis by tetrameric L-asparaginases from mesophilic bacteria” (Scientific Reports, 2020).
